assay: yeast display, Sf9 membrane polyspecificity reagent, FACS + sequencing; frameworks hold sequencing errors
In short: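 A nanobody's polyreactivity label depends on the gate it was sorted from. Yeast display cells were stained with 10% biotinylated, detergent-solubilized Sf9 membrane reagent for 1 hour at 4 °C, enriched on streptavidin microbeads and sorted by FACS. The low and high (top ~1%) gates were set on anti-HA fluorescence for expression and streptavidin fluorescence for reagent binding.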

Row | Sequence | polyreactivity (PSR sort gate)
1 | QVQLVDSGGGLVQAGGSLRLSCAASGSTFYLYAMGWYRQAPGKERELVAVITTDGSTTYADSVKGRFTISRDNATNTVYLEMNSLKPEDTAVYFCAAYGGNGQYYSQYDYWGQGTQVTVSS | low polyreactivity
2 | QVQLVESGGGLVQAGGSLRLSCAASGSILIHYTMGWYRQAPGKERELVAAISSTGGSTYYADSVKGRFTISRDNAKNTVYLQMNSLKPEDTAVYYCNAKQYWYYFWAYQQRDVESDYWGQGTQVTVSS | low polyreactivity
3 | QVQLVESGGGLVQAGGSLRLSCAASGNTFTRNAMGWYRQAPGKERELVAAITGRGGTYYADSVKGRFTISRDNAKNTVYLQMNSLKPEDTAVYYCAAASVTRRDLDYWGQGTQVTVSS | high polyreactivity
4 | QDQLVESGGGLVQAGGSLRLSCAASGSIFSYYAMGWYRHAPAKDRELVAAITGVGGTNYADSVKGRFTISRDNAKNTVYLQMNSLKPEDTAVYYCAARQYWRRYQYYYWGQGTQVTVSS | high polyreactivity
5 | QVQLVESGVGLVQAGVSLRLSCAASGIILTEYAMGCYRQAHGKERELVAAINRVGSTNYADSVKGRFTISRDNAKNTVYLQMNSLNPEDTAVYYCAAGTYYNDYDYWGQGTQVTVSS | low polyreactivity
6 | QVQLVESGGGLVQAGCSLRLSCAASGFILNWYAMGCYRQAPGKERELVAAISWTTSDTYYADSVKGRFTISRDNAKHTVYLQMNSLKPEDQAVYYCATQGYISFPPPAYYEYNYWGQGTQETVSS | low polyreactivity
7 | QVQDVESGGGLVQAGGSLRLSCAAYGFIFYSYAMGWYRQAPGKERELVAAISTGDGSTTFADSVKGRFTISRDNAKNSVYLQMNSLKPEDTAVYYCNVKYRACYRTDFEYWGQGTQVTVSS | low polyreactivity
8 | QVQLVESGGGLVQAGGSLRLSCAASGRIFDYNAMGWYRQAPGKERELVAAISVSGGSTYYADSVKGRFTISRDNAKNTVYLQMNSLKPEDTAVYYCNAGYILDSFRYDHWGHGTQVTVSS | low polyreactivity
9 | QVQHVESGGGLVQAGGSLRLSCAASGSTFYGNAMGWYRQAPGKEREFVASINSRGGITYYADSVKGRFTISRDNAKNTVYLQMNSLKPEDTAVYYCNTRVLSFYHYPYDYWGQGTQVTVSS | high polyreactivity
10 | QVQLVESGGGLVQAGGSLRLSCAASGRIFKRNAMGWYRQAPGNERELVAAINWSGGSTYYADSVKGRFTISRDTAKNTVYLQMNSLKPEDTAVYYCAALRVQGDYDYWGQGTQVTVSS | high polyreactivity
11 | QVQLVESGGGLVQAGGSLRLSCAASGFTFWLYAMGWYRQAPGKERELVAAITSGGGTYYADSVKGRFTISRDNEKNTVYLQMNSLKPEDTAVYYCAAEWVRDYEQGVSSFGFYYWGQGTQVTVSS | low polyreactivity
12 | QVQLVESGGGLVQAGGSLRLSCAASGRIFGGNAMGWYRPAPGKERELVAAISKRGGSTYYADSVKGRFTISRDNAKNTVYLQMNSLKPEDSAVYYCAATAYADQGLDYGYWGQGTQVTVSS | high polyreactivity
13 | QVQLVESGGGLVQAGGSLRLSCAASGITFRFNAMGWYRQAPGKEREFVAAITYSGDSTYYADSVKGRFTISRDNAKNTVYLQKNSLKPEDTAVYYCAADYYAISRRIFYYWGQGTQVTVSS | low polyreactivity
14 | QDQLVESGGGLVQAGGSLRLSCAASGSIFGKYTMGWYRQAPGKERELVAAISRSGSSTYYADSVKGRFTISRDNAKNTVYLQMNSLKPEDTAVYYCAAKFYYGVTSKFESWGQGTQVTVSS | high polyreactivity
15 | QVQLVESGGGLVHAGGSLRLSCAASGRTFRYYTMGWYRQAPGKEREFVAAISSTGGTYYADSVKGRFTISRDNAKNTVYLQMNSLKPEDTAVYYCAATFIQVVVNVQLYDYDYWGQGTQVTVSS | low polyreactivity
16 | QVQLVESGGGLVQAGGSLRLSSAASGRIFYQYAMGWYRQAPGKERELVASISRSGTRTYYADSVKGRFTISRDNAKNTVYLQMISLKPEDTAVYYCAARGRASVERRGGYYYWGQGTQVTVSS | high polyreactivity
17 | QVQLVESGGGLVQAGGSLRLSCAASGRNFDGYAMGWYRQAPGKERQLVAAISGGGNTKYADSVKGRFTISRDNAKNTVYLKMISLKPEDTAVYYCAARGYYYGYRFDSWGQGTQVTVSS | high polyreactivity
18 | QVQLVESGGGLVQAGGSLRLSCAASGSTFYYNDMGWYRQAPGKERELVAAIRTSGSTNYADSVKGRFTISRDYAKNNVYLQMNSLKPEDTAVYYCNAVVRHWFPGWYGRGDDYWGQGTQVTVSS | low polyreactivity
19 | QVQLVESGGGLVQAGGSLRLSCAASGITFEYYAMGWYRQAPGKERELVAAIDTGGSTNYADSVKGRFTISRDNAKNTVYLQMNSLKPEDTAVYYCTADGPSTPWVDYGYWGQGTQVTVSS | low polyreactivity
20 | QVQLVESGGGLVQAGGSLRLSCAASGITFWYYAMGWYRQAPGKERELVAAITRSGRTNYADSVKGRFTISRDNAKNTVYLQMNSLKPEDTAVYYCAVYLYSFSPRYYYWGQGTQVTVSS | low polyreactivity
21 | QVQLVESGGGLVQAGGSLRLSCAASGSIFTYYAMGWYRQAPGKERELVAAISYSGGTTYYADSVKGRFTISRDNAKNTVYLQMNSLKPEDTAVYYCNVDADYESQWLSVGYDYWGQGTQVTVSS | low polyreactivity
22 | QVQLVESGGGLVQAGGSLRLSCAASGSTQNVYAMGWYRQATGKERELVAAIRWSGDTYYADSVKGRFTISRDNAKNTVYLQMNSLKPEDTAVYYCAAVPGTTYWQRFDYWGQGTQVTVSS | low polyreactivity

Row | Sequence | polyreactivity (PSR sort gate)
23 | QVQLVESGGGLVQAGGSLRLSCAASGRIFASYAMGWYRQAPGKERELVAAISLSGGSTYYADSVKGRFTISRDIAKNTVYLQMNSLKPEDTAVYYCAAKNYRRYRDYYWGQGTQVTVSS | high polyreactivity
24 | QVQLVESGGGLVQAGGSLRLSCAASGLIYPVYAMGWYRQAPGKEREFVAAITYDGGNTYYADSVKGRFTISRDNAKNTVYLQMNSLKPEDTAVYYCAAEGVELISTRDPHDDYWGQGTQVTVSS | low polyreactivity
25 | QVQLVESGGGLVQAGGSLRLSCAASGSTFDHYDMGWSIPAPGKERELVAAISYSGSTTVYADSVKGRFTISRDNAMNTVYLQMNSLKPEDTAVYYCAASGDVIQSPMDYWGQGTQVTVSS | low polyreactivity
26 | QVQLVESGGGLVQAGGSLRLSCAASGSIFSYYAMGWYRQAPGKETEVVAAISQNGGSTYYADSVKGRVTISRDNAKNTVYLQMNSLKPEDTAVYYCNAYSVYVRGEYWGQGTQVTVSS | high polyreactivity
27 | QVQLVESGGGLVQAGGSLRLSCAASGRIFYRNAKGWYRQATGKERALVASITSGGRTNYADSVKGRFTISRDNAKNTVYLQMNSLKPEDTAVYYCAAPPPYSVRTFRFYYWGQGTQVTVSS | high polyreactivity
28 | QVQLVESGGGLVQAGGSLRLSCAASGSTFQIYAMGWYRQAPGKETELVAAITSSSSTNYADSVKGRFTISRDNAKNTVYLQMNSLKPEDTAVYYCAADVSWRSNWYDYWGQGTQGTVSS | low polyreactivity
29 | QVQLVESGGGLVQARGSLRLSCAASGRIFGLYAMGWYRQAPGKERELVASINSRGGSTNYADSVKGRFTISRDNAKNTVYLQMTSLKPEDTAVYYCNARFVYAYQRYYWGQGTQVTVSS | high polyreactivity
30 | QVQLVESGGGLVQAGGSLRLSCAASGSIFVHYAMGWYRQAPGKERELVARISWRGNTYYADSVKGRFTISRDNAKNTVYLQMNSLKPEDTAVYYCATGQSVIYRYEYWGQGTQVTVSS | low polyreactivity
31 | QVQLVESGGGLVQAGGSLRLTCAASGLIFYAYAMGWYRPAPWKERELVAAITSGGDTNYADSVKGRFTISRDNAKNTVYLQMNSLKPEDTAVYYCNADPPVFQSVYWRWYHNYDYWGQGTQVTLSS | low polyreactivity
32 | QVQLVESGGGLVQAGGSLRLSCAASGITFYRNAMGSYRQAPGKERELVADIDVGDGTYYADSVKGRFTISRDNCKNTVYLQMNSLKPEDTAVYYCNKTFLFLEYDSWGQGTQVTVSS | low polyreactivity
33 | QVQLVESGGGLVQAGGSLRLSCAASGFTFSYYAMGWYREAPGKERELVAAISQSGGSKYYADSVKGRFIISRDNAKNTVYLQMNSLKPEDTAVYYCNRGLRSHQSDDYWGLGTQVTVSS | high polyreactivity
34 | QVQLVESGVGLVQAGGSLRLSCAASGFIFPYYTMGWFRPAPGKERELVAAINVSGGSTYYADSVKGRFTISRDNAKNTVYVQMNSLKPEDTAVYYCAAVGGRFVGRSTMDYWGQGTQVTVSS | low polyreactivity
35 | QVQRVESGGGLVQAGGSLRLSCAASASTIVIKAMGCYRQAPGKARELVADLDYRGGSTNYADSVKGRFTISRDNAKNTVYLQMNSLKPEDTAVYYFNKRYVIRRRGYDYWGQGTQVTVSS | low polyreactivity
36 | QVQLVESGGGLVQAGGSLRLICAASGRIFGFNAMGWYRQAPGKERELVAAISGRSGRTYYADSVKGRFTISRDNAKITVYLQMNSLKPEDTAVYYCNTVGYRGPSWYDYWGQGTQVTVSS | high polyreactivity
37 | QVQLVESGGGLVQAGGSLRLSCAASGFIFNLYAMGWYRQAPGKERELVAVISGSGVRTYYADSVKGRFTISRDNAKNTVYLQMNSLKPEDTAVYYCAARTYGGYEYWGQGTQVTVSS | high polyreactivity
38 | QVQLVESGGGLVQAGGSLRLSCAASGSIFGTNGMGWYRQAPGKERELVAAITRRGGSTYADSVKGRFTISRDNAKNTVYLQMNSLKPEDTAVYYCAVDQGYVVRLAWIYGYWGQGTQVTVSS | low polyreactivity
39 | QVQLVDSGGGLVQAGGSLRLSCAASGRTFTRNAMGWYRPATRQERELLAAISFTGGRTYYADSVKGRFTISRDNAKNTVYLQMNSLNPEDTAVYYCNTTSRRSQVGYSTRYDYWGQGTQVTVSS | high polyreactivity
40 | QVQLVESGGGIVQAGGSLRLSCAASGRTFVLNALGWYRQAPGKERELVAAITLGGGSTYADSVKGRFTISRDNAQNTVYLQMNSLKPEDTAVYYCAADFHYPDFEYWGQGTQVTVSS | low polyreactivity
41 | QVQLVESGGGLVQAGGSLRLSCAASGFTFVGNAMGWSRQAPGKERELVAAIRWSSGSTYYADSVKGRFTISRDNAKNTVYLQMNSLKPEDTAVYYCAADYWTGITPDAIGDYWGQGTQVTVSS | low polyreactivity
42 | QEQLHESGGGLVQAGGSLRLSCAASRTISVTYNMGWYRQATGKEREFVAGNSTGDTTNYADSVKGRFTISRDNAKNTVYLQMNSLKPEDTAVNYCSAHIYRQDHFYYWGQGTQVTVSS | low polyreactivity
43 | QVQLVESGGGLVQAGGSLRLSCAASGSTFFWYAMGWYRQAPGKEREFVAAITYRGGSTHYADSVKGRFTISRDNAKNTVYLQMNSLKPEDTAVYYCAARSLRYPYDYWGQGTQVTVSS | low polyreactivity

Reference: the nanobody polyreactivity screen of Harvey et al. (2022)
